Source: patent US20260042850A1 (LOCKBODY THERAPEUTICS, published 2026)
Where a chain is given by its changes, count along the chain named.

B1: 09E04 (antibody, IgG4, V domains shown)
VH: QVQLVQSGAEVKKPGASVKVSCKASGYIFTSYTMHWVRQAPGQGLEWMGWINPNGGSTSYAQKFQGRVTMTRDTSTSTVYMELSSLRSEDTAVYYCARQEITTEFDYWGQGTLVTVSS
VL: EIVLTQSPGTLSLSPGERATLSCRASQSVESYANSYLHWYQQKPGQAPRLLIYRGSTRESGIPDRFSGSGSGTDFTLTISRLEPEDFAVYYCQQYGSEPLTFGGGTKVEIK
B2: MH1 (antibody, IgG4, V domains shown)
VH: B1 VH with I28T
VL: B1 VL with E30S, Y95S, G96K
B3: MH2 (antibody, IgG4, V domains shown)
VH: B1 VH with I28T
VL: B1 VL with E30S, N34Q, S60T, Y95S, E98S
B4: MH7-1 (antibody, human IgG4, V domains shown)
VH: B1 VH with I28T, W50I, N54S
VL: B1 VL with E30S, S60T, Y95S, G96K
B5: 09B08 (antibody, IgG4, V domains shown)
VH: B1 VH with I28T, G55N, S59N, Q99S, E104D
VL: B1 VL with E30S, Y95S, G96K, E98D
B6: 08G07 (antibody, human IgG4, V domains shown)
VH: B1 VH with I28T, N54S, S57L, T58A, S59N, Q99S, E104D
VL: B1 VL with E30D, Y95S, G96K
B7: MH5 (antibody, IgG4, V domains shown)
VH: B1 VH with I28T, N54S
VL: B1 VL with E30S, N34Q, S60T, Y95S, E98S
B8: 08B12 (antibody, IgG4, V domains shown)
VH: B1 VH with S31A, T33S, N52K, G55N, S59N, Q99T
VL: B1 VL with E30D, S60T, Y95S, G96K, E98D

Target: T1, human C-MET His tagged, monomeric (human, UniProt P08581 25-932)
T1 construct: also called monomeric human C-MET; biotinylated human C-MET-His
Assay: SPR Biacore, IgG captured, monomeric C-MET-His analyte
Procedure: (§1) Affinity (KD) of purified IgGs was determined via SPR with antigen in-solution on a Biacore® 3000 (GE). A mouse anti-human antibody (CH1 specific) was immobilized on a CM5 Sensor Chip to a level of 2000 RU in acetate buffer at pH 4.5 using amine coupling following the Wizard instructions for two channels. One channel was used for background signal correction. The standard running buffer HBS-EP pH 7.4 was used. Regeneration was performed with a single injection of 10 μl of 10 mM Glycine at pH 1.5 at 20 μl/minute. IgG samples were injected for 2 minutes at 50 nM at 30 μl/min followed by and off-rate of 60 seconds. The monomeric antigen (human C-MET His tagged or cynomolgus monkey C-MET His tag) was injected in two fold serial dilutions from 100 nM down to 6 nM, for 2 minutes at 30 μl/min followed by an off-rate of 300 seconds. The obtained sensorgrams were analysed using the Biacore® 3000 evaluation (BIAevaluation) software. The KD was calculated by simultaneous fitting of the association and dissociation phases to a 1:1 Langmuir binding model.

T1 sequence (P08581 25-932): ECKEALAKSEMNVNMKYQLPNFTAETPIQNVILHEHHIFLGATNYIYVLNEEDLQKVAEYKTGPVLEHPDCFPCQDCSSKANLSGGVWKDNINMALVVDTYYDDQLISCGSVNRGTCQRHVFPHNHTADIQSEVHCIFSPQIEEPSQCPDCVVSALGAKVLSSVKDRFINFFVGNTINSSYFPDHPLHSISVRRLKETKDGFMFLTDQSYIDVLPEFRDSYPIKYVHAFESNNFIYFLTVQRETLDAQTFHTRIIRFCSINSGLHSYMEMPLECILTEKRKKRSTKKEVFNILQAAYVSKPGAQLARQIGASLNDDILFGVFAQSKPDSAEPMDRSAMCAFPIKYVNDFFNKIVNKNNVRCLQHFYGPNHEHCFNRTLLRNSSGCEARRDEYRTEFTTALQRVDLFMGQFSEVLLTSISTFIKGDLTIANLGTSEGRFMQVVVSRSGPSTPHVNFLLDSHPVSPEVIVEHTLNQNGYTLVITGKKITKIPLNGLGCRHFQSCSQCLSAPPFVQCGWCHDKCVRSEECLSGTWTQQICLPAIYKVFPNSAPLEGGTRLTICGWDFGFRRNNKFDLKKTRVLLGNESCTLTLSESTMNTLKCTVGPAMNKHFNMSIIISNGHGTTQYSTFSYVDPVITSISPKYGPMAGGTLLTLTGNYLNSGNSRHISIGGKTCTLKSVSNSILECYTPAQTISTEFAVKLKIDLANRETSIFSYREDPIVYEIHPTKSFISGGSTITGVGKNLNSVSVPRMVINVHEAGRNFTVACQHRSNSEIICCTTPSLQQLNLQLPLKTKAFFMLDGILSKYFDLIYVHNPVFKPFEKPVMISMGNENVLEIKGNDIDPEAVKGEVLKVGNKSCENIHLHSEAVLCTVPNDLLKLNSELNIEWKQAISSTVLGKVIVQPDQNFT

In order of rising Kd:
1. B6  0.12 nM
2. B1  0.18 nM
3. B2  0.75 nM
4. B5  1.1 nM
5. B4  1.54 nM
6. B7  2 nM
7. B3  2.5 nM
8. B8  8.4 nM

In order of falling koff:
1. B8  0.00031 s⁻¹
2. B3  0.00018 s⁻¹
3. B4  0.000151 s⁻¹
4. B7  0.00015 s⁻¹
5. B2  7.11e-05 s⁻¹
6. B5  4.1e-05 s⁻¹
7. B1  1.6e-05 s⁻¹
8. B6  7.54e-06 s⁻¹

In order of falling kon:
1. B4  97900 M⁻¹ s⁻¹
2. B2  94700 M⁻¹ s⁻¹
3. B1  85000 M⁻¹ s⁻¹
4. B7  77000 M⁻¹ s⁻¹
5. B3  73000 M⁻¹ s⁻¹
6. B6  63400 M⁻¹ s⁻¹
7. B5  37000 M⁻¹ s⁻¹
8. B8  37000 M⁻¹ s⁻¹

Target: T2, cynomolgus monkey C-MET His tag, monomeric (cynomolgus monkey, UniProt A0M8R7 25-932 (Papio anubis entry))
T2 construct: also called monomeric cyno C-MET; cyCMET
Assay: as above
Procedure: as §1

T2 sequence (A0M8R7 25-932 S170N/I621T): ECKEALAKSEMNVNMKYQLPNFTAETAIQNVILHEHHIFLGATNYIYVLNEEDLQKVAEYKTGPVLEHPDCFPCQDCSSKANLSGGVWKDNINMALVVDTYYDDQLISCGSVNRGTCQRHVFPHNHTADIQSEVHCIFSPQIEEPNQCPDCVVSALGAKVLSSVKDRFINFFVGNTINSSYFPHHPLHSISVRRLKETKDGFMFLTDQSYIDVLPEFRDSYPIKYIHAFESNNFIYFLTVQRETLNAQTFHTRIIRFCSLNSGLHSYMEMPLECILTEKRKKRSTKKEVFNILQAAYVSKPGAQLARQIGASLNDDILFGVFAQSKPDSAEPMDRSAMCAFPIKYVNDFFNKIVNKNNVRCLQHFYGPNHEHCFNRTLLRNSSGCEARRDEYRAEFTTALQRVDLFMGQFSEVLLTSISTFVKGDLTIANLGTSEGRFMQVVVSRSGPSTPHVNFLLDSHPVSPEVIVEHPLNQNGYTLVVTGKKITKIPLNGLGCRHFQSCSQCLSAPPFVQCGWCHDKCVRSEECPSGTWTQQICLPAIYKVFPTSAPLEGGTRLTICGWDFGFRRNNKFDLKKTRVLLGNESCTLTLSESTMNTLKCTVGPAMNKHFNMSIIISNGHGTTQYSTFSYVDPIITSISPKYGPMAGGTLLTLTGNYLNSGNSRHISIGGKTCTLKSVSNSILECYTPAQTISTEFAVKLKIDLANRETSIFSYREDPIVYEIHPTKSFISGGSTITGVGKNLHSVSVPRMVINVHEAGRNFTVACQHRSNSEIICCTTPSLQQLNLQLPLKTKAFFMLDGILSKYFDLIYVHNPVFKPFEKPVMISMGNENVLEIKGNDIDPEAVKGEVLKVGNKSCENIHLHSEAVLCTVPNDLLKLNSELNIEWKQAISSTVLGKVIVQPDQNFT

In order of falling Kd:
1. B8  8.1 nM
2. B7  1.3 nM
3. B4  1.1 nM
4. B3  0.87 nM
5. B1  0.39 nM
6. B6  0.24 nM
7. B5  0.2 nM
8. B2  0.14 nM

In order of rising koff:
1. B5  1.2e-05 s⁻¹
2. B6  2.4e-05 s⁻¹
3. B2  2.6e-05 s⁻¹
4. B1  6.4e-05 s⁻¹
5. B4  0.000198 s⁻¹
6. B3  0.00021 s⁻¹
7. B7  0.00021 s⁻¹
8. B8  0.00043 s⁻¹

In order of rising kon:
1. B8  54000 M⁻¹ s⁻¹
2. B5  60000 M⁻¹ s⁻¹
3. B6  100000 M⁻¹ s⁻¹
4. B1  170000 M⁻¹ s⁻¹
5. B7  170000 M⁻¹ s⁻¹
6. B2  180000 M⁻¹ s⁻¹
7. B4  181000 M⁻¹ s⁻¹
8. B3  240000 M⁻¹ s⁻¹

Target: T2, cynomolgus monkey C-MET His tag, …
Assay: SPR Biacore, monomeric cyno against monomeric human C-MET
Procedure: as §1

B1 and B6 cannot be ordered by “cyno C-MET affinity, fold of the human C-MET affinity” value: at most 2 fold for the first, at most 2 fold for the second.

Target: T3, human C-MET on stably transfected CHO-K1 cells (human, UniProt P08581 25-1390)
T3 construct: also called hucMET; human C-MET+ CHO-K1 cells
Assay: flow cytometry, C-MET CHO-K1 cells
Procedure: (§2) Purified IgGs were tested in FACs for binding to human and cyno C-MET expressed on CHO-K1 stable cell lines and CHO-K1 wild-type cells. The IgG samples were titrated in three-fold serial dilutions starting at 500 nM to 0.08 nM. Binding of IgGs was detected with a mouse anti-human IgG conjugated to FITC. Results were analyzed by examining the Mean Fluorescence Intensity (MFI) of 10000 cells per sample in the BL-1 channel detector of a flow cytometer (Attune™ NxT Acoustic Focusing Cytometer, Invitrogen/ThermoFisher Scientific).

T3 sequence (P08581 25-1390 limits assumed): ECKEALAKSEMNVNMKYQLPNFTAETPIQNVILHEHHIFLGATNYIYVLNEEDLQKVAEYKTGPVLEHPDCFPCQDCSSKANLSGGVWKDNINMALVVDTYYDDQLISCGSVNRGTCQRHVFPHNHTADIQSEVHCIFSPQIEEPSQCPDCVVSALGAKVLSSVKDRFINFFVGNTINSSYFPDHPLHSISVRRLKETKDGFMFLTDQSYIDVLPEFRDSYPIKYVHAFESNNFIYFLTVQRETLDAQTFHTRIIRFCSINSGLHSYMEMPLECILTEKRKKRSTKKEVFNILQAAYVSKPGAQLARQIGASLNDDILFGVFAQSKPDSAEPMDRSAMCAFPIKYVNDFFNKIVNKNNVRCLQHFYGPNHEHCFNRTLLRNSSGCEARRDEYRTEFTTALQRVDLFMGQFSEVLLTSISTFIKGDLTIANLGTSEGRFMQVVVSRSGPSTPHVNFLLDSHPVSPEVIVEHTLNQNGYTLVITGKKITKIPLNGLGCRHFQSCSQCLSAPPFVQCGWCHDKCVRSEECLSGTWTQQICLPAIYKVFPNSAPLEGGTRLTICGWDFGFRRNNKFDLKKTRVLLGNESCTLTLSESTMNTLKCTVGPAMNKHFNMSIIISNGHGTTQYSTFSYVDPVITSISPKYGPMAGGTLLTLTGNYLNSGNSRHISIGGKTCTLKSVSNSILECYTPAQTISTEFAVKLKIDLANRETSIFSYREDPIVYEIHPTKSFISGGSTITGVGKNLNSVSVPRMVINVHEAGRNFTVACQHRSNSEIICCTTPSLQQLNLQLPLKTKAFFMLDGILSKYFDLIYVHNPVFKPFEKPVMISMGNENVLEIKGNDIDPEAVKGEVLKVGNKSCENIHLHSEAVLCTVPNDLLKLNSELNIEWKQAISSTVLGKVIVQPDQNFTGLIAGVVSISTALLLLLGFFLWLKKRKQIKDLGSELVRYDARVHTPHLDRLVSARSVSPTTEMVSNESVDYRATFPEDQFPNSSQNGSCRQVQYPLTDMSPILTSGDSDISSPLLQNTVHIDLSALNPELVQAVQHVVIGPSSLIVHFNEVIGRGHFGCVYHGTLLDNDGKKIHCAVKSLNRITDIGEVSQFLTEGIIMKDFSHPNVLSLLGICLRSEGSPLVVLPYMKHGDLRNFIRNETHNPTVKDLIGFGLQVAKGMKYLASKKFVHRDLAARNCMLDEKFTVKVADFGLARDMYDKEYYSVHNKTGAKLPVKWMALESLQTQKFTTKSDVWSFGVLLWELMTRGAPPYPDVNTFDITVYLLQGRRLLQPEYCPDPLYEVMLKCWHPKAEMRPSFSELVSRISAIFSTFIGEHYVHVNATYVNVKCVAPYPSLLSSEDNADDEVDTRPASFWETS

In order of falling EC50:
1. B8  11.7 nM
2. B5  9.3 nM
3. B6  4.19 nM
4. B1  2.9 nM
5. B2  2.02 nM
6. B7  1.76 nM
7. B3  1.59 nM

Target: T4, cynomolgus monkey C-MET on stably transfected CHO-K1 cells (cynomolgus monkey, UniProt A0M8R7 25-1381 (Papio anubis entry))
T4 construct: also called cycMET; cyno C-MET+ CHO-K1 cells
Assay: flow cytometry, C-MET CHO-K1 cells
Procedure: as §2

T4 sequence (A0M8R7 25-1381 S170N/I621T limits assumed): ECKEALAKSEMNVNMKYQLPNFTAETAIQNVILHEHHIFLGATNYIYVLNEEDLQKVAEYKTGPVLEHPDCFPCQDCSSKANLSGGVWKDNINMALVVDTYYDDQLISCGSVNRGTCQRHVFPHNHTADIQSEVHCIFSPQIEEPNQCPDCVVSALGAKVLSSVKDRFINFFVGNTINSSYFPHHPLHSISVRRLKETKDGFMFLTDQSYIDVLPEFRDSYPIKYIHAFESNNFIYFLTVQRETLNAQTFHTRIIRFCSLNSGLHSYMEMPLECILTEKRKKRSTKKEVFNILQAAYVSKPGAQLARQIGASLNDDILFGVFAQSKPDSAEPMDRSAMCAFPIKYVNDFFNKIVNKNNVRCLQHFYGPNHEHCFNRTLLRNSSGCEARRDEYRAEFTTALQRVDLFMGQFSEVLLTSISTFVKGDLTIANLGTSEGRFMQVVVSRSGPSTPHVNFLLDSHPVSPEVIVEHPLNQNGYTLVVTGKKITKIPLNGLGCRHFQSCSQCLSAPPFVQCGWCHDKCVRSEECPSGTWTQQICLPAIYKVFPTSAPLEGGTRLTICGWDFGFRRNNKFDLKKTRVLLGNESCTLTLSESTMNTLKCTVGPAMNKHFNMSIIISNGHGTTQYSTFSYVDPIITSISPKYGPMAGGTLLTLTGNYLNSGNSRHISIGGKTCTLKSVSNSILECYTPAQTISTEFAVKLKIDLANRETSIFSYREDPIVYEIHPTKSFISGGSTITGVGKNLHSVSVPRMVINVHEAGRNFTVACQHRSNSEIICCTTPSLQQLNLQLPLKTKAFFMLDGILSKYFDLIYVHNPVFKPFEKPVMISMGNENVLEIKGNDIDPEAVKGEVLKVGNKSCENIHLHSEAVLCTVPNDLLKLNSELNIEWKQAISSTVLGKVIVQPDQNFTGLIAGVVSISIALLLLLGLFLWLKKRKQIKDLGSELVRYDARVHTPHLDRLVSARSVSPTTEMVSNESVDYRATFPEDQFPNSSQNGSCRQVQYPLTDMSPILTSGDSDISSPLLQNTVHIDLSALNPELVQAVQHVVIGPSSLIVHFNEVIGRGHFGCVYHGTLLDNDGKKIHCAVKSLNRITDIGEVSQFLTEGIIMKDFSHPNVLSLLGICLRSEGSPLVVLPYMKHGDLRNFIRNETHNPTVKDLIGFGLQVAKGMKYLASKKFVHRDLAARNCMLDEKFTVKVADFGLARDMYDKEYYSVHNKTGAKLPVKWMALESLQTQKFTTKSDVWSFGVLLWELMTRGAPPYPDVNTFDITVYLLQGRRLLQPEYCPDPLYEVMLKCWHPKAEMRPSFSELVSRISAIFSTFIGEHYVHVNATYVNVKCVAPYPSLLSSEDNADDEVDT

In order of rising EC50:
1. B2  0.26 nM
2. B7  0.3 nM
3. B3  0.34 nM
4. B6  0.68 nM
5. B1  1.11 nM
6. B8  1.34 nM
7. B5  3.78 nM

Target: T3, human C-MET on stably transfected …
Assay: flow cytometry, C-MET CHO-K1 cells
Remark: another data set of the same source
Procedure: as §2
(§3) Antibodies to C-MET were analysed for concentration-dependent binding at the cell surface via flow cytometry. CHO-K1 cells were stably transfected with either human or cyno C-MET full-length cDNAs. Anti-C-MET IgGs and an isotype control IgG4(S228P) were then all tested in IgG4(S228P) format, over a concentration range of 500-0.08 nM for binding to human (FIG. 5A) and cyno (FIG. 5B) CHO-K1 cells.

B1 and B2 cannot be ordered by “maximum MFI, fold over Isotype IgG4 background” value (“maximum MFI, fold” below): over 10 fold for the first, over 10 fold for the second.

B3 and B4 cannot be ordered by “maximum MFI, fold” value: over 10 fold for the first, over 10 fold for the second.

B5 and B6 cannot be ordered by “maximum MFI, fold” value: over 10 fold for the first, over 10 fold for the second.

B7 and B8 cannot be ordered by “maximum MFI, fold” value: over 10 fold for the first, over 10 fold for the second.

Target: T4, cynomolgus monkey C-MET on stably …
Assay: flow cytometry, C-MET CHO-K1 cells
Remark: another data set of the same source
Procedure: as §2, §3

B1 and B2 cannot be ordered by “maximum MFI, fold” value: over 10 fold for the first, over 10 fold for the second.

B3 and B4 cannot be ordered by “maximum MFI, fold” value: over 10 fold for the first, over 10 fold for the second.

B5 and B6 cannot be ordered by “maximum MFI, fold” value: over 10 fold for the first, over 10 fold for the second.

B7 and B8 cannot be ordered by “maximum MFI, fold” value: over 10 fold for the first, over 10 fold for the second.

Target: T5, Insulin
T5 construct: Coated surface of the polyreactivity (development risk) ELISA
Assay: polyreactivity ELISA on insulin
Parameters: scale not given here

T5 sequence (P01308 25-54, chain 1 of 2): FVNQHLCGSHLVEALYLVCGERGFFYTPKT
T5 sequence (P01308 90-110, chain 2 of 2): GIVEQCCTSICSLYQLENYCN

In order of rising reactivity score:
1. B4  1
2. B6  1
